The source of these data is article PMC3922912, “Structural basis of stereospecific reduction by quinuclidinone reductase” (AMB Express, 2014).

The target in data set [1] is T1, NADPH-dependent 3-quinuclidinone reductase (RrQR) (Rhodotorula mucilaginosa, UniProt B9ZZZ6).
T1 construct: gene rqr; homotetramer; crystal model residues 7-272, residues 1-6 disordered
In words: X-ray crystal structure, […] Å. It counts as binding. The conditions noted are these: crystals grown at 278 K, CHES pH 10.0, PEG8000; one NADPH per protomer.

Data set [2] has as its system O=C1CN2CCC1CC2. As to the kind of experiment: purified protein. Type of data set: biochemical, Rhodotorula mucilaginosa. To be noted: 350 μM NADPH, 200 mM potassium phosphate pH 7.0, 37°C, substrate as HCl salt.
Data set [3] has as its target NADPH-dependent 3-quinuclidinone reductase (RrQR) from Rhodotorula rubra (Rhodotorula rubra). As to the kind of experiment: crystal structure; RrQR in complex with NADPH; crystals grown at 278 K, sitting-drop vapor diffusion, 100 mM CHES (pH 10.0), 30% PEG8000, 3% sucrose; four protomers in the asymmetric unit; 2.2 Å.

As for `NC(=O)C1=CN([C@@H]2O[C@H](COP(=O)(O)OP(=O)(O)OC[C@H]3O[C@@H](n4cnc5c(N)ncnc54)[C@H](OP(=O)(O)O)[C@@H]3O)[C@@H](O)[C@H]2O)C=CC1` [NADPH], the “X-ray crystal structure, 2.2 Å” value in data set [1] was “A clear electron density for NADPH is observed in each protomer”.

What is called Km is the substrate concentration at which the rate is half of its maximum. What is called Vmax is the rate approached at saturating substrate. The term kcat denotes the number of substrate molecules converted per active site and unit of time at saturation. For the compound “NADPH-dependent 3-quinuclidinone reductase (RrQR) (Rhodotorula mucilaginosa; N173A)”, in data set [2], the Km is recorded as 100 mM, the Vmax is 11.6 µmol/min/mg and the kcat amounted to 5.62 s⁻¹. As usually defined, the stoichiometry N is a count of units in the complex or per binding partner. Consider “NADPH-dependent 3-quinuclidinone reductase (RrQR) from Rhodotorula rubra (enzyme)”, for which the stoichiometry N in data set [3] was 4.
